Results published in publication PMC2289750 (The Journal of Cell Biology, 1992).

Biological target: T1, zyxin (chicken, UniProt Q04584 1-542, 125I (radioiodinated using Iodogen))
T1 sequence (looked up): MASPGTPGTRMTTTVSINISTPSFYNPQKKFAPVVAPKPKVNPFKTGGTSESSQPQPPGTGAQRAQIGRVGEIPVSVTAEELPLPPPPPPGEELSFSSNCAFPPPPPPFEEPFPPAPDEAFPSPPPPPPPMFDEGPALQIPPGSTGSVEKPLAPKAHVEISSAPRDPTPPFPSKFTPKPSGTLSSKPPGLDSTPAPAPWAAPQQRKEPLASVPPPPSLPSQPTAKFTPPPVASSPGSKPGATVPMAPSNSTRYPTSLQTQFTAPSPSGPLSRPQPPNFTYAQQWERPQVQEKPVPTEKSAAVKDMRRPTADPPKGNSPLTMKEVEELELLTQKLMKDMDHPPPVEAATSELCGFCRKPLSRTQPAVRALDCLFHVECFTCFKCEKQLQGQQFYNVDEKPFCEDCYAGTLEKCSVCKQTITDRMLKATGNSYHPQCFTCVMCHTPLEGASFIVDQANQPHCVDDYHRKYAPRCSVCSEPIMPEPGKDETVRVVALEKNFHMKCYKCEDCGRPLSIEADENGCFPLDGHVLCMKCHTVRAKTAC
Experiment: far-Western, overlay or dot blot

B1: chicken Cysteine-Rich Protein (cCRP) (natural protein)
chain: MPNWGGGKKCGVCQKAVYFAEEVQCEGSSFHKSCFLCMVCKKNLDSTTVAVHGDEIYCKSCYGKKYGPKGYGYGMGAGTLSTDKGESLGIKYEEGQSHRPTNPNASRMAQKVGGSDGCPRCGQAVYAAEKVIGAGKSWHKSCFRCAKCGKSLESTTLADKDGEIYCKGCYAKNFGPKGFGFGQGAGALIHSQ
B1: binds.
